Data as given in article PMC9817179.

What was measured:
Halo-TAF15(IDR)-NLS = Halo-TAF15(IDR)-NLS (UniProt Q92804); assay: live-cell single-particle tracking (SPT), residence time in puncta; living U2OS cells at 37°C, 5% CO2; HILO illumination; PA-JF646-labelled single molecules tracked (500 ms per frame, 2000 frames) within puncta of the same protein seen with JFX549; in-puncta trajectories; specific residence time of a two-component exponential fit, corrected for photobleaching with H2B-Halo
NLS-TAF15(IDR)-Halo-FTH1 = NLS-TAF15(IDR)-Halo-FTH1 (UniProt Q92804); assay: as above

Sequence of Halo-TAF15(IDR)-NLS (Q92804 whole entry): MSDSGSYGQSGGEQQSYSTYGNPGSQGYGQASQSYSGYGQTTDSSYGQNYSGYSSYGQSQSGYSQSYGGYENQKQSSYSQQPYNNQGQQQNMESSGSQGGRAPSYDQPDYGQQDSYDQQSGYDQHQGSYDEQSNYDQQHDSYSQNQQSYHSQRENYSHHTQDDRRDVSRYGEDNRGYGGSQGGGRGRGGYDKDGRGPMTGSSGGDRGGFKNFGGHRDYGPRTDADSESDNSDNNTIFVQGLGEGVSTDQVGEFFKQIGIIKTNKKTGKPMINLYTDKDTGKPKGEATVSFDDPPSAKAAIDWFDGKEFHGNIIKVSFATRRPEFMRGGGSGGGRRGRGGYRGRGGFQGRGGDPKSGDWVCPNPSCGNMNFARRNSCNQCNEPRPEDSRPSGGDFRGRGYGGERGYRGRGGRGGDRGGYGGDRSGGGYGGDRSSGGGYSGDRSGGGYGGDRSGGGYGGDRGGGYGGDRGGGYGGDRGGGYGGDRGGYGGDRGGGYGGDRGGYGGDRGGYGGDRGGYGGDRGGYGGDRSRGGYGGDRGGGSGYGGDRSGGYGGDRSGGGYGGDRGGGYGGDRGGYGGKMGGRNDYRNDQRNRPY

| Substance | residence time (RT) at its puncta (Halo-TAF15(IDR)-NLS) | residence time (RT) at its puncta (NLS-TAF15(IDR)-Halo-FTH1) |
| --- | --- | --- |
| Halo-TAF15(IDR)-NLS (from UniProt Q92804 2-205) (domain or fragment) | 10.2 s |  |
| NLS-TAF15(IDR)-Halo-FTH1 (from UniProt Q92804 2-205) |  | 64.2 s |
